Assay results published in publication PMC11774805, “The C-terminal α-helix is crucial for the activity of the bacterial ABC transporter BmrA” (The Journal of Biological Chemistry, 2024).

Molecular target: the molecule itself
Test: cross-linking + native gel or EMSA; blue native PAGE of purified BmrA wt and Cys variants; 0.25 mg/ml preincubated ± 100 uM DTT for 30 min at room temperature, then DDM to 1%; no ATP; 4 to 16% Bis-Tris gel; dimer to monomers

Row | Protein | stoichiometry N
1 | Bacillus multidrug resistance ATP (BmrA) wt, full-length half-transporter (natural protein, Bacillus subtilis strain 168, UniProt O06967 1-589, looked up, BmrA, ABC half-transporter of Bacillus subtilis strain 168, full length (last residue G589); Cloned into pET303-CT/His; source: E. coli, purified in presence of detergent (DDM)) MPTKKQKSKSKLKPFFALVRRTNPSYGKLAFALALSVVTTLVSLLIPLLTKQLVDGFSMSNLSGTQIGLIALVFFVQAGLSAYATYALNYNGQKIISGLRELLWKKLIKLPVSYFDTNASGETVSRVTNDTMVVKELITTHISGFITGIISVIGSLTILFIMNWKLTLLVLVVVPLAALILVPIGRKMFSISRETQDETARFTGLLNQILPEIRLVKASNAEDVEYGRGKMGISSLFKLGVREAKVQSLVGPLISLVLMAALVAVIGYGGMQVSSGELTAGALVAFILYLFQIIMPMGQITTFFTQLQKSIGATERMIEILAEEEEDTVTGKQIENAHLPIQLDRVSFGYKPDQLILKEVSAVIEAGKVTAIVGPSGGGKTTLFKLLERFYSPTAGTIRLGDEPVDTYSLESWREHIGYVSQESPLMSGTIRENICYGLERDVTDAEIEKAAEMAYALNFIKELPNQFDTEVGERGIMLSGGQRQRIAIARALLRNPSILMLDEATSSLDSQSEKSVQQALEVLMEGRTTIVIAHRLSTVVDADQLLFVEKGEITGRGTHHELMASHGLYRDFAEQQLKMNADLENKAG | 2
2 | BmrA A582C (natural protein, Bacillus subtilis strain 168, UniProt O06967 1-589, looked up, BmrA of Bacillus subtilis strain 168, full length, A582 replaced by Cys; Forms a disulfide-linked dimer without DTT; source: E. coli, purified in presence of detergent (DDM)) MPTKKQKSKSKLKPFFALVRRTNPSYGKLAFALALSVVTTLVSLLIPLLTKQLVDGFSMSNLSGTQIGLIALVFFVQAGLSAYATYALNYNGQKIISGLRELLWKKLIKLPVSYFDTNASGETVSRVTNDTMVVKELITTHISGFITGIISVIGSLTILFIMNWKLTLLVLVVVPLAALILVPIGRKMFSISRETQDETARFTGLLNQILPEIRLVKASNAEDVEYGRGKMGISSLFKLGVREAKVQSLVGPLISLVLMAALVAVIGYGGMQVSSGELTAGALVAFILYLFQIIMPMGQITTFFTQLQKSIGATERMIEILAEEEEDTVTGKQIENAHLPIQLDRVSFGYKPDQLILKEVSAVIEAGKVTAIVGPSGGGKTTLFKLLERFYSPTAGTIRLGDEPVDTYSLESWREHIGYVSQESPLMSGTIRENICYGLERDVTDAEIEKAAEMAYALNFIKELPNQFDTEVGERGIMLSGGQRQRIAIARALLRNPSILMLDEATSSLDSQSEKSVQQALEVLMEGRTTIVIAHRLSTVVDADQLLFVEKGEITGRGTHHELMASHGLYRDFAEQQLKMNCDLENKAG | 2
3 | BmrA M580C (natural protein, Bacillus subtilis strain 168, UniProt O06967 1-589, looked up, BmrA of Bacillus subtilis strain 168, full length, M580 replaced by Cys; Forms a disulfide-linked dimer without DTT; source: E. coli, purified in presence of detergent (DDM)) MPTKKQKSKSKLKPFFALVRRTNPSYGKLAFALALSVVTTLVSLLIPLLTKQLVDGFSMSNLSGTQIGLIALVFFVQAGLSAYATYALNYNGQKIISGLRELLWKKLIKLPVSYFDTNASGETVSRVTNDTMVVKELITTHISGFITGIISVIGSLTILFIMNWKLTLLVLVVVPLAALILVPIGRKMFSISRETQDETARFTGLLNQILPEIRLVKASNAEDVEYGRGKMGISSLFKLGVREAKVQSLVGPLISLVLMAALVAVIGYGGMQVSSGELTAGALVAFILYLFQIIMPMGQITTFFTQLQKSIGATERMIEILAEEEEDTVTGKQIENAHLPIQLDRVSFGYKPDQLILKEVSAVIEAGKVTAIVGPSGGGKTTLFKLLERFYSPTAGTIRLGDEPVDTYSLESWREHIGYVSQESPLMSGTIRENICYGLERDVTDAEIEKAAEMAYALNFIKELPNQFDTEVGERGIMLSGGQRQRIAIARALLRNPSILMLDEATSSLDSQSEKSVQQALEVLMEGRTTIVIAHRLSTVVDADQLLFVEKGEITGRGTHHELMASHGLYRDFAEQQLKCNADLENKAG | 2
4 | BmrA D583C (natural protein, Bacillus subtilis strain 168, UniProt O06967 1-589, looked up, BmrA of Bacillus subtilis strain 168, full length, D583 replaced by Cys; Forms a disulfide-linked dimer without DTT; source: E. coli, purified in presence of detergent (DDM)) MPTKKQKSKSKLKPFFALVRRTNPSYGKLAFALALSVVTTLVSLLIPLLTKQLVDGFSMSNLSGTQIGLIALVFFVQAGLSAYATYALNYNGQKIISGLRELLWKKLIKLPVSYFDTNASGETVSRVTNDTMVVKELITTHISGFITGIISVIGSLTILFIMNWKLTLLVLVVVPLAALILVPIGRKMFSISRETQDETARFTGLLNQILPEIRLVKASNAEDVEYGRGKMGISSLFKLGVREAKVQSLVGPLISLVLMAALVAVIGYGGMQVSSGELTAGALVAFILYLFQIIMPMGQITTFFTQLQKSIGATERMIEILAEEEEDTVTGKQIENAHLPIQLDRVSFGYKPDQLILKEVSAVIEAGKVTAIVGPSGGGKTTLFKLLERFYSPTAGTIRLGDEPVDTYSLESWREHIGYVSQESPLMSGTIRENICYGLERDVTDAEIEKAAEMAYALNFIKELPNQFDTEVGERGIMLSGGQRQRIAIARALLRNPSILMLDEATSSLDSQSEKSVQQALEVLMEGRTTIVIAHRLSTVVDADQLLFVEKGEITGRGTHHELMASHGLYRDFAEQQLKMNACLENKAG | 2
5 | BmrA N581C (natural protein, Bacillus subtilis strain 168, UniProt O06967 1-589, looked up, BmrA of Bacillus subtilis strain 168, full length, N581 replaced by Cys; Forms a disulfide-linked dimer without DTT; source: E. coli, purified in presence of detergent (DDM)) MPTKKQKSKSKLKPFFALVRRTNPSYGKLAFALALSVVTTLVSLLIPLLTKQLVDGFSMSNLSGTQIGLIALVFFVQAGLSAYATYALNYNGQKIISGLRELLWKKLIKLPVSYFDTNASGETVSRVTNDTMVVKELITTHISGFITGIISVIGSLTILFIMNWKLTLLVLVVVPLAALILVPIGRKMFSISRETQDETARFTGLLNQILPEIRLVKASNAEDVEYGRGKMGISSLFKLGVREAKVQSLVGPLISLVLMAALVAVIGYGGMQVSSGELTAGALVAFILYLFQIIMPMGQITTFFTQLQKSIGATERMIEILAEEEEDTVTGKQIENAHLPIQLDRVSFGYKPDQLILKEVSAVIEAGKVTAIVGPSGGGKTTLFKLLERFYSPTAGTIRLGDEPVDTYSLESWREHIGYVSQESPLMSGTIRENICYGLERDVTDAEIEKAAEMAYALNFIKELPNQFDTEVGERGIMLSGGQRQRIAIARALLRNPSILMLDEATSSLDSQSEKSVQQALEVLMEGRTTIVIAHRLSTVVDADQLLFVEKGEITGRGTHHELMASHGLYRDFAEQQLKMCADLENKAG | 2
6 | BmrA K579C (natural protein, Bacillus subtilis strain 168, UniProt O06967 1-589, looked up, BmrA of Bacillus subtilis strain 168, full length, K579 replaced by Cys; Forms a disulfide-linked dimer without DTT; source: E. coli, purified in presence of detergent (DDM)) MPTKKQKSKSKLKPFFALVRRTNPSYGKLAFALALSVVTTLVSLLIPLLTKQLVDGFSMSNLSGTQIGLIALVFFVQAGLSAYATYALNYNGQKIISGLRELLWKKLIKLPVSYFDTNASGETVSRVTNDTMVVKELITTHISGFITGIISVIGSLTILFIMNWKLTLLVLVVVPLAALILVPIGRKMFSISRETQDETARFTGLLNQILPEIRLVKASNAEDVEYGRGKMGISSLFKLGVREAKVQSLVGPLISLVLMAALVAVIGYGGMQVSSGELTAGALVAFILYLFQIIMPMGQITTFFTQLQKSIGATERMIEILAEEEEDTVTGKQIENAHLPIQLDRVSFGYKPDQLILKEVSAVIEAGKVTAIVGPSGGGKTTLFKLLERFYSPTAGTIRLGDEPVDTYSLESWREHIGYVSQESPLMSGTIRENICYGLERDVTDAEIEKAAEMAYALNFIKELPNQFDTEVGERGIMLSGGQRQRIAIARALLRNPSILMLDEATSSLDSQSEKSVQQALEVLMEGRTTIVIAHRLSTVVDADQLLFVEKGEITGRGTHHELMASHGLYRDFAEQQLCMNADLENKAG | 2
